Reference: patent US20200207873A1 (INSERM INSTITUT NATIONAL DE LA SANT ET DE LA RECHERCHE M …, published 2020)

Target: T1, full-length His-tagged pUL89 (wild-type) (human cytomegalovirus, AD169 genotype, UniProt P16732 1-674)
T1 construct: mature; It was expressed from pCI-neo His-pUL89 in HEK293 cells and purified on Ni resin; also called His-pUL89; 6xHis-pUL89; not shown: 6xHis tag
T1 sequence: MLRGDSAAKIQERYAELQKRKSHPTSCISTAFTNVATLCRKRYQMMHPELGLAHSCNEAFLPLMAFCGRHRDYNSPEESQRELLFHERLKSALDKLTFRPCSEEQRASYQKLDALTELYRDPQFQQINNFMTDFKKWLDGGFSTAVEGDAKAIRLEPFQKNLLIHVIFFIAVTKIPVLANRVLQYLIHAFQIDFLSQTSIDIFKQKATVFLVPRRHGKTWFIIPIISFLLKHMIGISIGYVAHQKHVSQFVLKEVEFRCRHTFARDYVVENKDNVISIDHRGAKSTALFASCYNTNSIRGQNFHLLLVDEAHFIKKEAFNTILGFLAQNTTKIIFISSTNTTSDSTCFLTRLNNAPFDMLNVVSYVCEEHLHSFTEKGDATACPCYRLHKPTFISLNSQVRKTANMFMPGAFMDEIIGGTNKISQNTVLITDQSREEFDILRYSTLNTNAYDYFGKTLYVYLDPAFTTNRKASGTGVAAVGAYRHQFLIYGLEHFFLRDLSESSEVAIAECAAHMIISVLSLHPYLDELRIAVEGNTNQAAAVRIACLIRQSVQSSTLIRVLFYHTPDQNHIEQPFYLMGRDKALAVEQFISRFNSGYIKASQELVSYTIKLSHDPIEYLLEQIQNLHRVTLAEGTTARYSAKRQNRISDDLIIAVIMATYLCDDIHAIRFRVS
Assay: Alpha proximity assay, purified proteins; negative controls are each protein alone

B1: full-length amino-terminal 3xHA-tagged pUL56 (wild-type) (other)
chain: MEMNLLQKLCVVCSKCNEYAMELECLKYCDPNVLLAESTPFKRNAAAIVYLYRKIYPEVVAQNRTQSSLLTLYLEMLLKALHEDTALLDRALMAYSRQPDRAAFYRTVLRLDRCDRHHTVELQFTDNVRFSVSLATLNDIERFLCKMNYVYGILAPEAGLEVCAQLLELLRRLCGISPVARQEVYVEGTTCAQCYEELTIIPNQGRSLNKRLQGLLCNHIAVHRPSSQSDVNIQTVEQDLLDLTTRIPHLAGVLSALKSLFSSSSAYHSYIQEAEEALREYNLFTDIPERIYSLSDFTYWSRTSEVIVKRVGITIQQLNVYHQLCRALMNGISRHLYGEDVEDIFVLGEKALDGEERMFVGSVFAAPNRIIDLITSLSIQAFEDNPVFNKLHESNEMYTKIKHILEEIRRPLPDGTGGDGPEGEAIHLRGREAMSGTGTTLMTASNSSNSSTHSQRNNGGGGRARGGGKKAVGGGANGQDGDGSENGLRVRNCDEHEALDLVDARSRIHNVTREVNVRKRAYLQKVSEVGYGKVIRCIKTQERLTSKLIDVNLVGPLCLDFISKLMNGFLYRSQYHQDQDVVDVGDQFTYDEHLYVVNNLIHKSLPVESLPLLGQQIYELCNGPLFTHCTDRYPLSHNVDMAYACDNAGVLPHVKDDLVKCAEGTVYPSEWMVVKYMGFFNFSDCQDLNVLQKEMWMHVRELVLSVALYNETFGKQLSIACLRDELHPDRDVILTYNKEWPLLLRHEGNLYKSKDLYLLLYRHLSRPDESGDVPTAPVAKPSTLTAAAAVSGAFREPDRPWLPSPYPSSSTAGVSRRVRATRKRPRRASSLLDLARDEHGIQDLVPGSLR
notes: also called 3xHA-pUL56; HA-pUL56; not shown: amino-terminal 3xHA tag
- fold of Alpha signal over negative controls: > 2 fold
